Reference: publication PMC10203562

What was measured:
Test in all cases: SPR; Biacore 8K+; anti-human IgG (Fc) amine-coupled to CM5 captures the antibody (10-25 RU); PCSK9 50 nM to 12 pM flowed over, 240 s association, 1800 s dissociation; Langmuir 1:1 global fit; duplicates
bococizumab variant PFGQ = molecular target: bococizumab variant PFGQ
bococizumab variant SELW = molecular target: bococizumab variant SELW
bococizumab variant AEPA = molecular target: bococizumab variant AEPA
bococizumab variant PELW = molecular target: bococizumab variant PELW
bococizumab variant PENW = molecular target: bococizumab variant PENW
bococizumab variant EDGM = molecular target: bococizumab variant EDGM
bococizumab variant SEGQ = molecular target: bococizumab variant SEGQ
bococizumab variant AEGQ = molecular target: bococizumab variant AEGQ
bococizumab variant PERQ = molecular target: bococizumab variant PERQ
bococizumab variant PEGQ = molecular target: bococizumab variant PEGQ
bococizumab = molecular target: bococizumab

- Kd (bococizumab variant PFGQ): 0.25 nM
- Kd (bococizumab variant SELW): 0.27 nM
- Kd (bococizumab variant AEPA): 0.21 nM
- Kd (bococizumab variant PELW): 0.19 nM
- Kd (bococizumab variant PENW): 0.24 nM
- Kd (bococizumab variant EDGM): 0.66 nM
- Kd (bococizumab variant SEGQ): 0.35 nM
- Kd (bococizumab variant AEGQ): 0.19 nM
- Kd (bococizumab variant PERQ): 0.25 nM
- Kd (bococizumab variant PEGQ): 0.2 nM
- Kd (bococizumab): 0.25 nM
Substance: proprotein convertase substilisin/kexin type 9 (PCSK9) (from UniProt Q8NBP7 153-692) (natural protein)
